The target in the experiment is T1, complement C1q (human, UniProt P02745;P02746;P02747).
T1 construct: also called human complement C1q; source: bought: Merk (Darmstadt, Germany); copies: 6 + 6 + 6
In words: MST; fluorescently labelled C1q (RED-NHS) 40 nM; TsCRT, TsCRT^Δ, mutants or P^TsCRT gradient-diluted; 50 mM Hepes, 150 mM NaCl, 2 mM CaCl2, 0.05% Tween 20, pH 7.4; Monolith NT.115, LED power 20%, MST power 50%. Conditions: both partners purified.

This is an account of results in PMC11059001, “Crystal structure of Trichinella spiralis calreticulin and the structural basis of its complement evasion mechanism involving C1q” (Frontiers in Immunology, 2024).

T1 sequence (P02745 23-245, chain 1 of 3): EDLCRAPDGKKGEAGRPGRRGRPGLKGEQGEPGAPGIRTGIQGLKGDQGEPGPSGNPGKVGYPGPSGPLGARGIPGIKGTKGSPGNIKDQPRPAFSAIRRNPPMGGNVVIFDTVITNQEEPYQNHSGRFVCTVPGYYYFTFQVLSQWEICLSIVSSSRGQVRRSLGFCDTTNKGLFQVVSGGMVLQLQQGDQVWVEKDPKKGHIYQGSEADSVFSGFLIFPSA
T1 sequence (P02746 28-253, chain 2 of 3): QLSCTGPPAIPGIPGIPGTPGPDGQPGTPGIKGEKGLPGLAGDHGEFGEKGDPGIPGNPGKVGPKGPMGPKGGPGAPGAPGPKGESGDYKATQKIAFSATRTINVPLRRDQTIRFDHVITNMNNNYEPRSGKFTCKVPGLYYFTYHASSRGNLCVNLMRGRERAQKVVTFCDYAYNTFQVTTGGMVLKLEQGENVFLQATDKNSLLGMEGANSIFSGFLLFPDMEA
T1 sequence (P02747 29-245, chain 3 of 3): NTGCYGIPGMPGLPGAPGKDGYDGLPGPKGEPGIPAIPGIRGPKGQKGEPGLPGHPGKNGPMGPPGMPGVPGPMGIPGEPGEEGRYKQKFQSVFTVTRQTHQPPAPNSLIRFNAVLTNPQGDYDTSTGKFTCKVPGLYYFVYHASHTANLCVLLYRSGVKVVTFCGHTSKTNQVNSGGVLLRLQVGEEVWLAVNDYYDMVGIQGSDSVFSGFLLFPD

B1: C1q-binding peptide P^TsCRT (TsCRT residues 122-146) (peptide)
peptide: DLEDFNSDTPYRIMFGPDICGPEKR
notes: calreticulin of Trichinella spiralis (TsCRT), residues 122-146; source: synthetic peptide
The term Kd denotes the free concentration of one partner at which half of the binding sites on the other are occupied at equilibrium, for simple one-to-one binding. A low value points to a tighter complex. The molecule B1 came in with a Kd of 260 nM.
